# Data reported in paper PMC3575409, “Identification of a Novel Protein-Protein Interaction Motif Mediating Interaction of GPCR-Associated Sorting Proteins with G Protein-Coupled Receptors” (PLoS ONE, 2013).
# B1: central domain of GASP-1: central portion of GASP-1 (AA 380 to 1073) that contains 19 GASP motif (protein)
# chain: MTKEEAKTKARARAKQEARSEEEALIGTWFWATDESSMADEASIESSLQVEDESIIGSWFWTEEEASMGTGASSKSRPRTDGERIGDSLFGAREKTSMKTGAEATSESILAADDEQVIIGSWFWAGEEVNQEAEEETIFGSWFWVIDAASVESGVGVSCESRTRSEEEEVIGPWFWSGEQVDIEAGIGEEARPGAEEETIFGSWFWAENQTYMDCRAETSCDTMQGAEEEEPIIGSWFWTRVEACVEGDVNSKSSLEDKEEAMIPCFGAKEEVSMKHGTGVRCRFMAGAEETNNKSCFWAEKEPCMYPAGGGSWKSRPEEEEDIVNSWFWSRKYTKPEAIIGSWLWATEESNIDGTGEKAKLLTEEETIINSWFWKEDEAISEATDREESRPEAEEGDIIGSWFWAGEEDRLEPAAETREEDRLAAEKEGIVGSWFGAREETIRREAGSCSKSSPKAEEEEVIIGSWFWEEEASPEAVAGVGFESKPGTEEEEITVGSWFWPEEEASIQAGSQAVEEMESETEEETIFGSWFWDGKEVSEEAGPCCVSKPEDDEEMIVESWFWSRDKAIKETGTVATCESKPENEEGAIVGSWFEAEDEVDNRTDNGSNCGSRTLADEDEAIVGSWFWAGDEAHFESNPSPVFRAICRSTCSVEQEPDPSRRPQSWEEVTVQFKPGPWGRVGFPSISPFRFPKE
# modifications: left off: GST, N-terminal, kept
# notes: central portion of GASP-1 (AA 380 to 1073) that contains 19 GASP motif
# Target: full-length ADRB2 (β2 adrenergic receptor)
# Test: SPR saturation binding, ADRB2
# Set-up: species or system human
# Protocol: The human ADRB2 and CNR2 receptors were produced using the P. pastoris expression system as previously described, [16]. After methanol-induced receptor expression, cells were washed with PBS pH 7.0 and resuspended in ice-cold buffer A (50 mM Tris-HCl pH 7.4, 500 mM NaCl, 10% glycerol, 5 mM EDTA, 1 mM PMSF, 2 mM DDT). Cells were then lysed with two cycles of 20 s shaking and 20 s cooling on ice using 0.5 mm glass beads in a FastPrep 24 device. Unbroken cells and cell debris were removed by centrifugation (3000 g, 5 min, 4°C) and the membrane fraction from the supernatant was pelleted by ultracentrifugation (100,000 g, 45 min, 4°C). […] Finally membranes were resuspended in buffer B and quantified with the bicinchoninic acid (BCA) method (Pierce).
# Approximately 150 mg membrane proteins were extracted by 5 min incubation at room temperature in buffer C (50 mM Tris-HCl pH 7.4, 500 mM NaCl, 10% glycerol, 1 mM PMSF, 2 mM DTT, 50 mM imidazole, 1% (w/v) DDM, 0.1% (w/v) CHS). […] Imidazole was removed from the eluted fraction using a HiTrap 5 ml desalting column (GE Healthcare), purified proteins were quantified using the BCA assay (Pierce) and receptor integrity was analyzed by SDS-PAGE. […]
molecule,measurement,value
B1,kinetics of the interaction,very stable and had a slow association rate
